Assays:
[1] = target: Recombinant human Src kinase (Abcam 79635) (human) (UniProt P12931); assay: MST; RED-tris-NTA-labelled His-tagged Src kinase constant at 50 nM; unlabelled Na,K-ATPase 0.2 nM to 16 µM; 50 mM Tris/HCl pH 7.4, 150 mM NaCl, 10 mM MgCl2; Monolith NT.115, LED 100%, MST power 40%
[2] = target: Recombinant human Src kinase (Abcam 79635) (human) (UniProt P12931)

Kd [1]: 0.21 µM
reduction of Src autophosphorylation at Tyr416 in vitro (purified Na,K-ATPase, Src kinase, ATP; Western blot p-Src/Src) [2]: 70%
Substance: Na,K-ATPase purified from duck salt glands (complex)

Reference: paper PMC9455167
